# Laboratory results from US20170298096A1 (CANIMGUIDE THERAPEUTICS, published 2017).
# T1: His-tagged P3028 peptide (PGE73) (human)
# T1 construct: albumin-derived peptide, in solution at 0.5 ug/mL; not shown: His-tag
# T1 peptide: VFDEFKPLVEEPQNLIK
# Molecular target: T1, His-tagged P3028 peptide (PGE73)
# Experiment: PEPSCAN ELISA, peptide on card
row,RAMPO Score,Binder
1,547,KKLDTVFVKLSLFTER [SEQ ID NO: 319 KKLDTVFVKLSLFTER]
2,456,KKLDTFFVKLSIFTER [SEQ ID NO: 352 KKLDTFFVKLSIFTER]
3,374,KKLDTFFVRLSLFTER [SEQ ID NO: 331 KKLDTFFVRLSLFTER]
4,499,KKLDTFFVKLSMFTER [SEQ ID NO: 353 KKLDTFFVKLSMFTER]
5,403,KKLDTFFVKFSLFTER [SEQ ID NO: 333 KKLDTFFVKFSLFTER]
6,451,KKLDTFFVKLNLFTER [SEQ ID NO: 347 KKLDTFFVKLNLFTER]
7,696,KKLDTFFVKLSLPTER [SEQ ID NO: 369 KKLDTFFVKLSLPTER]
8,527,KKLDTFVVKLSLFTER [SEQ ID NO: 325 KKLDTFVVKLSLFTER]
9,862,KKLDTFFVKLSLNTER [SEQ ID NO: 368 KKLDTFFVKLSLNTER]
10,365,KKLDTFFVKNSLFTER [SEQ ID NO: 337 KKLDTFFVKNSLFTER]
11,415,KKLDTFFVKISLFTER [SEQ ID NO: 335 KKLDTFFVKISLFTER]
12,436,KKLDTFFVKPSLFTER [SEQ ID NO: 338 KKLDTFFVKPSLFTER]
13,460,KKLDTFFVKMSLFTER [SEQ ID NO: 336 KKLDTFFVKMSLFTER]
14,744,KKLDTFFVKLMLFTER [SEQ ID NO: 346 KKLDTFFVKLMLFTER]
15,456,KKLDTFFPKLSLFTER (also called 32251) [SEQ ID NO: 329 KKLDTFFPKLSLFTER]
16,531,KKLDTFFVKLSLGTER [SEQ ID NO: 363 KKLDTFFVKLSLGTER]
17,768,KKLDTFFVKLQLFTER (also called 30678) [SEQ ID NO: 348 KKLDTFFVKLQLFTER]
18,517,KKLDTFLVKLSLFTER [SEQ ID NO: 320 KKLDTFLVKLSLFTER]
19,712,KKLDTFMVKLSLFTER [SEQ ID NO: 321 KKLDTFMVKLSLFTER]
20,658,KKLDTFFVKVSLFTER [SEQ ID NO: 343 KKLDTFFVKVSLFTER]
21,483,KKLDTFFVKLSRFTER [SEQ ID NO: 356 KKLDTFFVKLSRFTER]
22,495,KKLDTFFVKGSLFTER [SEQ ID NO: 334 KKLDTFFVKGSLFTER]
23,358,KKLDTFFFKLSLFTER [SEQ ID NO: 326 KKLDTFFFKLSLFTER]
24,400,KKLDTFFVKLSLCTER [SEQ ID NO: 362 KKLDTFFVKLSLCTER]
25,448,KKLDTFFVKLSLLTER [SEQ ID NO: 366 KKLDTFFVKLSLLTER]
26,478,KKLDTFFVKLSSFTER [SEQ ID NO: 357 KKLDTFFVKLSSFTER]

row,RAMPO Score,Binder
1,1050,KKLDTFFVKLSLHTER [SEQ ID NO: 364 KKLDTFFVKLSLHTER]
2,426,KKLDTFFVKASLFTER [SEQ ID NO: 332 KKLDTFFVKASLFTER]
3,1190,KKLDTFFVKLSLMTER (also called 30677) [SEQ ID NO: 367 KKLDTFFVKLSLMTER]
4,545,KKLDTFFVKLSVFTER [SEQ ID NO: 359 KKLDTFFVKLSVFTER]
5,379,KKLDTFFGKLSLFTER [SEQ ID NO: 327 KKLDTFFGKLSLFTER]
6,520,KKLDTFFVKLTLFTER [SEQ ID NO: 349 KKLDTFFVKLTLFTER]
7,351,KKLDTFFVKSSLFTER [SEQ ID NO: 341 KKLDTFFVKSSLFTER]
8,439,KKLDTFFVKRSLFTER [SEQ ID NO: 340 KKLDTFFVKRSLFTER]
9,517,KKLDTFTVKLSLFTER [SEQ ID NO: 324 KKLDTFTVKLSLFTER]
10,462,KKLDTFFVKLSAFTER [SEQ ID NO: 350 KKLDTFFVKLSAFTER]
11,382,KKLDTFFVKYSLFTER [SEQ ID NO: 344 KKLDTFFVKYSLFTER]
12,409,KKLDTFFVKLSWFTER [SEQ ID NO: 360 KKLDTFFVKLSWFTER]
13,651,KKLDTFFVKLSQFTER [SEQ ID NO: 355 KKLDTFFVKLSQFTER]
14,700,KKLDTFSVKLSLFTER [SEQ ID NO: 323 KKLDTFSVKLSLFTER]
15,411,KKLDTFFLKLSLFTER [SEQ ID NO: 328 KKLDTFFLKLSLFTER]
16,462,KKLDTFFVKLSNFTER [SEQ ID NO: 354 KKLDTFFVKLSNFTER]
17,460,KKLDTFFVKLSHFTER [SEQ ID NO: 351 KKLDTFFVKLSHFTER]
18,535,KKLDTFFVKLHLFTER [SEQ ID NO: 345 KKLDTFFVKLHLFTER]
19,470,KKLDTFFVKQSLFTER [SEQ ID NO: 339 KKLDTFFVKQSLFTER]
20,437,KKLDTFFVKLSTFTER [SEQ ID NO: 358 KKLDTFFVKLSTFTER]
21,1140,KKLDTFFVKLSLQTER [SEQ ID NO: 370 KKLDTFFVKLSLQTER]
22,525,KKLDTFFVKLSLATER [SEQ ID NO: 361 KKLDTFFVKLSLATER]
23,468,KKLDTFFVKLSLITER [SEQ ID NO: 365 KKLDTFFVKLSLITER]
24,511,KKLDTFQVKLSLFTER [SEQ ID NO: 322 KKLDTFQVKLSLFTER]
25,399,KKLDTFFVKTSLFTER [SEQ ID NO: 342 KKLDTFFVKTSLFTER]
26,365,KKLDTFFRKLSLFTER [SEQ ID NO: 330 KKLDTFFRKLSLFTER]
